Positions count from the first letter of the chain named. Names and notes keep the numbering of the source.
B1: Flag-tagged RhoC (wild type), P08134 F154A; L157A (protein)
chain: MAAIRKKLVIVGDGACGKTCLLIVFSKDQFPEVYVPTVFENYIADIEVDGKQVELALWDTAGQEDYDRLRPLSYPDTDVILMCFSIDSPDSLENIPEKWTPEVKHFCPNVPIILVGNKKDLRQDEHTRRELAKMKQEPVRSEEGRDMANRISAAGYAECSAKTKEGVREVFEMATRAGLQVRKNKRRRGCPIL
B2: Flag-tagged RhoC (wild type), P08134 Y66A; L69A; F154A; L157A (protein)
chain: B1 chain with Y66A, L69A
B3: Flag-tagged RhoC (wild type), P08134 Y66A; L69A (protein)
chain: B1 chain with Y66A, L69A, A154F, A157L
B4: Flag-tagged RhoC (wild type), P08134 F30A; V33A (protein)
chain: B1 chain with F30A, V33A, A154F, A157L

target: V5-LC3, Q9GZQ8; assay: co-immunoprecipitation (Flag IP), western blot band quantification; settings: chain shown with the change; HEK293T cells expressing V5-LC3 and Flag-RhoC; n = 3; parent: est. 4.6; read off a plot; scale: relative IP LC3-II protein level

Question: With B1 as the binder, how does the response read?
Answer: 1.2

Question: For B2, which response is on record?
Answer: 1

Question: For B3, which response is on record?
Answer: 2.1

Question: How did the response turn out when B4 was run?
Answer: 4.7
